# Laboratory results from PMC4191604 (Journal of Medicinal Chemistry, 2014).
# Changes are numbered by the printed parent chain. Where two headings read alike, the source gives them in different places.
# T1: GBP1 mutant D103N (human, UniProt P32455 1-592, D103N)
# T1 sequence (looked up): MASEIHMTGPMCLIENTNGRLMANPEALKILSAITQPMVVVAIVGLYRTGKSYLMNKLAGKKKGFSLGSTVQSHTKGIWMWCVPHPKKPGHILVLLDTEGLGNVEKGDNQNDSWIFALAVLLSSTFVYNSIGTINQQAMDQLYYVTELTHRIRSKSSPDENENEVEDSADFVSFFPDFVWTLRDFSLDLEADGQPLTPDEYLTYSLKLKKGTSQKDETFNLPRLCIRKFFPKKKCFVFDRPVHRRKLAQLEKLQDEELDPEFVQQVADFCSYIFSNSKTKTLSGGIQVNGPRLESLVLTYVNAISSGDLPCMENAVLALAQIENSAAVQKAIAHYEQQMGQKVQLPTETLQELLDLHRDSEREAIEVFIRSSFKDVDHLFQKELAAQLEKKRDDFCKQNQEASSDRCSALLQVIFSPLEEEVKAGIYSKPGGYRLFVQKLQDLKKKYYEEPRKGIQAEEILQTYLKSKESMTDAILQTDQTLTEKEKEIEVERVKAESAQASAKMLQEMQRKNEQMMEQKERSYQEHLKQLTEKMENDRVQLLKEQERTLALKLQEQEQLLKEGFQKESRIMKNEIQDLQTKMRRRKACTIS
# T2: GBP1 GTPase (human GBP1, recombinant wild type) (human, UniProt P32455 1-592)
# T2 sequence (looked up): T1 sequence (looked up) with N103D
# T3: GBP1 mutant R227A/K228A (human, UniProt P32455 1-592, R227A | K228A)
# T3 sequence (looked up): T1 sequence (looked up) with N103D, R227A, K228A
# B1: PIM1 (recombinant) (enzyme)
# chain: not shown
# Key:
# Assay in all cases: SPR
# GBP1 mutant D103N = target: T1, GBP1 mutant D103N
# [1] = target: T2, GBP1 GTPase (human GBP1, recombinant …)
# GBP1 mutant R227A/K228A = target: T3, GBP1 mutant R227A/K228A
# [2] = target: T2, GBP1 GTPase (human GBP1, recombinant …); remark: listed apart in the source
binder,measurement,setting,value
B1,Kd,GBP1 mutant D103N,21 ± 1 nM
same,Kd,[1],67 ± 20 nM
same,Kd,GBP1 mutant R227A/K228A,137 ± 14 nM
same,Kd,[2],38 ± 14 nM
